Test results published in IntAct's records for PubMed 17548836.

B1: Bone morphogenetic protein 1 (Homo sapiens), P13497 (parent)
chain: MPGVARLPLLLGLLLLPRPGRPLDLADYTYDLAEEDDSEPLNYKDPCKAAAFLGDIALDEEDLRAFQVQQAVDLRRHTARKSSIKAAVPGNTSTPSCQSTNGQPQRGACGRWRGRSRSRRAATSRPERVWPDGVIPFVIGGNFTGSQRAVFRQAMRHWEKHTCVTFLERTDEDSYIVFTYRPCGCCSYVGRRGGGPQAISIGKNCDKFGIVVHELGHVVGFWHEHTRPDRDRHVSIVRENIQPGQEYNFLKMEPQEVESLGETYDFDSIMHYARNTFSRGIFLDTIVPKYEVNGVKPPIGQRTRLSKGDIAQARKLYKCPACGETLQDSTGNFSSPEYPNGYSAHMHCVWRISVTPGEKIILNFTSLDLYRSRLCWYDYVEVRDGFWRKAPLRGRFCGSKLPEPIVSTDSRLWVEFRSSSNWVGKGFFAVYEAICGGDVKKDYGHIQSPNYPDDYRPSKVCIWRIQVSEGFHVGLTFQSFEIERHDSCAYDYLEVRDGHSESSTLIGRYCGYEKPDDIKSTSSRLWLKFVSDGSINKAGFAVNFFKEVDECSRPNRGGCEQRCLNTLGSYKCSCDPGYELAPDKRRCEAACGGFLTKLNGSITSPGWPKEYPPNKNCIWQLVAPTQYRISLQFDFFETEGNDVCKYDFVEVRSGLTADSKLHGKFCGSEKPEVITSQYNNMRVEFKSDNTVSKKGFKAHFFSDKDECSKDNGGCQQDCVNTFGSYECQCRSGFVLHDNKHDCKEAGCDHKVTSTSGTITSPNWPDKYPSKKECTWAISSTPGHRVKLTFMEMDIESQPECAYDHLEVFDGRDAKAPVLGRFCGSKKPEPVLATGSRMFLRFYSDNSVQRKGFQASHATECGGQVRADVKTKDLYSHAQFGDNNYPGGVDCEWVIVAEEGYGVELVFQTFEVEEETDCGYDYMELFDGYDSTAPRLGRYCGSGPPEEVYSAGDSVLVKFHSDDTITKKGFHLRYTSTKFQDTLHSRK
B2: Bone morphogenetic protein 1 (Homo sapiens), P13497 (parent)
chain: B1 chain
partner: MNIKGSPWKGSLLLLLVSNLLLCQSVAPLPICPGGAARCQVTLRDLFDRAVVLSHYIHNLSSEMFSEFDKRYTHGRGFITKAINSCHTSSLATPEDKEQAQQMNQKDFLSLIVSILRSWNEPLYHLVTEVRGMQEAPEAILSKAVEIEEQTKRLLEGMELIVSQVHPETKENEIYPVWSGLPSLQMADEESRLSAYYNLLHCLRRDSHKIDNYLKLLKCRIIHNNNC

Variants of: B1
Details: with soma_human GH1, P01241
Chain of soma_human GH1, P01241 (P01241 whole entry): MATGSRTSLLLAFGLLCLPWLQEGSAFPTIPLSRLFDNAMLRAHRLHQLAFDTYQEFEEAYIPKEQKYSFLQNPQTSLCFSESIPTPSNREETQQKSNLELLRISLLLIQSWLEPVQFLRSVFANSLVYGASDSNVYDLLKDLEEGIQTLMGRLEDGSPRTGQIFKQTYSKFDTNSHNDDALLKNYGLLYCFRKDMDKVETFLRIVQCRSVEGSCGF

effect of a mutation on the interaction	Variant
disrupting interaction strength	E214A

Variants of: B2
Details: with prl_human PRL

effect of a mutation on the interaction	Variant
disrupting interaction strength	E214A
